The results in this text go back to patent US20250144213A1 (UTC THERAPEUTICS SHANGHAI, published 2025).

Assay [1] concerns the target T1, BCMA-Fc recombinant protein (human, UniProt Q02223 1-54).
T1 construct: Soluble staining reagent, 5 µg/ml; not shown: Fc part
T1 sequence (looked up): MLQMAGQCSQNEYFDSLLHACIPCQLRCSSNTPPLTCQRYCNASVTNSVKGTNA
Kind of assay: flow cytometry: lentivirally transduced CAR-T cells stained with 5 µg/ml BCMA-Fc, detected with anti-human IgG Fc (FIG. 17B).

The target of assay [2] is T2, CD123-Fc recombinant protein (human, UniProt P26951 19-305).
T2 construct: Soluble staining reagent; also called CD123-Fc protein; not shown: Fc part
T2 sequence (looked up): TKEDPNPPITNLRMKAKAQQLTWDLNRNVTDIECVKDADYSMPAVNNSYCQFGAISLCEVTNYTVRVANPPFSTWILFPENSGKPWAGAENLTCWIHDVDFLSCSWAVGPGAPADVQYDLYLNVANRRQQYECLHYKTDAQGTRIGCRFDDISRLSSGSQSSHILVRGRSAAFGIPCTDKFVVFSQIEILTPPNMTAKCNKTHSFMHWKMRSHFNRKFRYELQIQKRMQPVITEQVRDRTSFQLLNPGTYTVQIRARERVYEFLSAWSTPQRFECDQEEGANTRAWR
Kind of assay: FACS staining of CAR-T cells with CD123-Fc recombinant protein (FIG. 28).

Assay [3] concerns the target T3, CD40-Fc recombinant protein (human, UniProt P25942 21-193).
T3 construct: Soluble staining reagent; also called CD40-Fc protein; not shown: Fc part
Briefly: FACS staining of T cells expressing the anti-CD40 scFv-CD28 fusion with CD40-Fc protein (FIG. 64).

T3 sequence (P25942 21-193 limits assumed): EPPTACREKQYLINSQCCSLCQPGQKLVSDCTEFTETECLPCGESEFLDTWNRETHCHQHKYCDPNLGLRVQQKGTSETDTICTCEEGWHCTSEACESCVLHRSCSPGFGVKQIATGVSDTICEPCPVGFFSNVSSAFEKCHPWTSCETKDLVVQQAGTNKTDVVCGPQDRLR

B1: anti-BCMA scFv BCMA24 (scFv)
scFv: QSVLTQPPSASGTPGQRVTISCSGSSSNIGSYSVNWYQQIPGTAPKLLIYSNNQRPSGVPDRFSGSKSGTSASLAISGLQSEDEADYSCAAWDDSLNGVVFGGGTKLTVLGGGGSGGGGSGGGGSQVQLVQSGAEVKKPGSSVKVSCKASGGTFSSYAISWVRQAPGQGLEWMGGIIPIFGTANYAQKFQGRVTITADESTSTAYMELSSLRSEDTAVYYCARGSFYSSVNVWGQGTTVTVSS
notes: also called BCMA24 scFv; BCMA24 CAR
In the case of B1, in assay [1], the binding result was “binds”.

B2: anti-BCMA scFv BCMA27 (scFv)
scFv: QSALTQPPSASGSPGQSVTISCTGSRSNVGSYNDVSWYQQHPGKAPKLIIYDVDKRPAGVPDRFSGSKSGNTASLTVSGLQAEDDADYYCSSYGGTYSLFVFGTGTELTVLGGGGSGGGGSGGGGSEVQLVESGGDLVQPGGSLRLSCAASGFTFSSYGMHWVRQAPGKGLEWVAVISYDGSNKYYADSVKGRFTISRDNSKNTLYLQMNSLRAEDTAVYYCAKEEFYGDSSYGMDVWGQGTTVTVSS
notes: also called BCMA27 scFv; BCMA27 CAR
For the molecule B2, in assay [1], the binding result is reported as “binds”.

B3: anti-BCMA scFv BCMA22 (scFv)
scFv: QSALTQPASVSGSPGQSITISCTGTSSDVGGYNYVSWYQQHPGKAPKLMIYEVTNRPSGVSNRFSGSKSGNTASLTISGLQAEDEAHYYCISYTSSSTLDYVFGTGTKVTVLGGGGSGGGGSGGGGSEVQLVESGPGLVKPSGTLSLTCAVSGGSISSSNWWSWVRQPPGKGLEWIGEIYHSGSTNYNPSLKSRVTISVDKSKNQFSLKLSSVTAADTAVYYCARVGSGYSYGYGDRVLDYWGQGTLVTVSS
notes: also called BCMA22 scFv; BCMA22 CAR
As for B3, the binding result in assay [1] was “binds”.

B4: anti-BCMA scFv BCMA34 (scFv)
scFv: QPGLTQPPSVSKGLRQTATLTCTGNSNNVGNQGAAWLQQHQGHPPKLLSYRNNNRPSGISERFSASRSGNTASLTITGLQPEDEADYYCSAWDSSLSARVFGGGTKLTVLGGGGSGGGGSGGGGSQVQLVQSGAEVKKPGASVKVSCKTSGYTFSNPFVHWVRQAPGQGLEWVGIINLSGGDTLYAQKFQGGVTMTRDTSTNTAYMELTSLTFEDTAVYYCARDQAGFGDSAYWGQGTLVTVSS
notes: also called BCMA34 scFv; BCMA34 CAR
On to B4, for which the binding result in assay [1] is “binds”.

B5: anti-CD123 scFv-C26 (scFv)
scFv: QSVLTQPPSASGTPGQRVTISCSGSRSNIGSNTVSWYQQFPGTAPKLLIYLNNQRPSGVPDRFSGSKSGTSASLAISGLQSEDEAEYYCATWDDDLNGVFGGGTKLTVLGGGGSGGGGSGGGGSEVQLVESGGGLVQPGGSLRLSCAASGFTLSNFEMNWVRQAPGRGLEWVSYISATTSATSYADSVKGRFTISRDNAKNSLYLQMNSLRAEDTAVYYCARVRDGYNFGYYYYYMDVWGKGTTVTVSS
notes: also called C26 scFv
In the case of B5, the binding result in assay [2] is “binds”.

B6: anti-CD123 scFv-C32 (scFv)
scFv: QSVVTQPPSASGTPGQRVTISCSGSSSNIEGNTVSWYQQFPGAAPKLLIYSNSYRASGVPDRFSGSKSGTSASLAISELQSEDEADYYCSAWDDSLNGPVFGGGTKVTVLGGGGSGGGGSGGGGSEVQLVESGGGLVQPGGSLRLSCAASGFTFTSYAMNWVRQAPGKGLEWVSDISSSSSYIYYADSVKGRFTISRDNAKNSLYLQMNSLRAEDTAVYYCARDLYSGYDYGYYYGMDVWGQGTTVTVSS
notes: also called C32 scFv
Regarding B6, in assay [2], the binding result is reported as “binds”.

B7: anti-CD123 scFv-C30 (scFv)
scFv: AIRLTQSPSSLSASVGDRVTITCQASQNINNYLNWYQQKSGKAPKLLIYDASNLEAGVPSRFSGSASGTDFTFTISSLQPEDIATYYCQQNDNLPLTFGQGTRLEIKGGGGSGGGGSGGGGSEVQLVESGGGVVRPGGSLRLSCAASGFTFGDYGMSWVRQAPGKGLEWVSGINWNGGSTGYADSVKGRFTISRDNAKNSLYLQMNSLRAEDTALYYCARDRAPDYGDYLQVGTTDYWGQGTLVTVSS
notes: also called C30 scFv
For the molecule B7, the binding result in assay [2] is recorded as “binds”.

B8: anti-CD123 scFv-C33 (scFv)
scFv: DIRLTQSPSSLSASVGDTITITCRASQDISSWIAWYQQKPGTAPRLLIYAASSLQSGVPSRFSGSGSGTDFTLTINSLHPEDFATYYCQQGSTFPLAFGGGTKVEIKGGGGSGGGGSGGGGSQVQLVQSGAEVKKPGSSVKVSCKASGGTFSSYAISWVRQAPGQGLEWMGGIIPIFGTANYAQKFQGRVTITADESTSTAYMELSSLRSEDTAVYYCARGLDNWNDVGWFDPWGQGTLVTVSS
notes: also called C33 scFv
Regarding B8, in assay [2], the binding result is “binds”.

B9: anti-BCMA scFv BCMA30 (scFv)
scFv: DIQMTQSPSFLSASVGDRVTITCRASQGISSYLAWYQQKPGKAPKLLIYAASTLQSGVPSRFSGSGSGTEFTLTISSLQPEDFATYYCQQLNSYPPWTFGQGTKVEIKGGGGSGGGGSGGGGSQVQLVQSGAEVKKPGESLKISCKGSGYRFTSYWIGWVRQMPGKGLEWMGIIYPGDSDTRYSPPFQGQVTISADKSIDTAYLQWSSLKASDTAMYYCARLDASGSQRGGMDVWGQGTTVTVSS
notes: also called BCMA30 scFv; BCMA30 CAR
On to B9, for which the binding result in assay [1] was “binds”.

B10: anti-BCMA scFv BCMA31 (scFv)
scFv: QSALTQPPSASGSPGQSVTISCTGTSSDVGTYNYVSWYQQHPGKAPKLMIYDVNQRPSGVPDRFSGSKSGNTASLTVSGLQAEDEADYYCSSYGGSNNLVFGGGTKVTVLGGGGSGGGGSGGGGSEVQLVESGGGLIQPGGSLRLSCAASGFTFSSYWMSWVRQSPGKGLEWVANIKPDGSDKYYVDSVKGRFTISRDNAKNSLDLQMNSLRGEDTAIYYCARGATTYGSWGQGTLVTVSS
notes: also called BCMA31 scFv; BCMA31 CAR
Consider B10, for which the binding result in assay [1] is listed as “binds”.

B11: anti-BCMA scFv BCMA23 (scFv)
scFv: QSALTQPPSASGTPGQRVTISCSGSSPNIGGNSVNWYQQLPGTAPKLLMYTNNQRPSGVPDRFSGSKSGTSASLAISGLQSEDEADYYCAAWDDSLNGVVFGGGTKLTVLGGGGSGGGGSGGGGSQVQLVQSGAEVKKPGESLKISCKGSGYSFTSYWIGWVRQMPGKGLEWMGIIYPGDSDTRYSPSFQGQVTISADKSISTAYLQWSSLKASDTAMYYCARRGGALDYWGQGTLVTVSS
notes: also called BCMA23 scFv; BCMA23 CAR
Take B11: in assay [1], the binding result is “binds”.

B12: anti-CD40 scFv 40-37 (in LACOSTIM 40-37.28) (scFv)
scFv: SYELTQPPSVSVSPGQTASITCSGDKLGNKYASWYQQKPGQSPVLVIFQDSRRPSGIPERFSGSNSGNTATLTISGTQAMDEADYYCQAWDSSTALFGGGTKLTVLGGGGSGGGGSGGGGSQVQLVQSGGGVVQPGRSLRLSCAASGFTFSSYAMHWVRQAPGKGLEWVAVISKDGSYENYVDSVKGRLAISRDNSKNTLFLQMDSLRPEDTALYFCARDYWYGMDVWGQGTTVTVSS
notes: Tested on T cells as part of the LACOSTIM 40-37.28 (scFv fused with CD28), co-electroporated with the anti-Her2 CAR 4D5.BBZ; also called 40-37 scFv
For B12, the binding result in assay [3] is “binds”.

B13: anti-BCMA scFv BCMA32 (scFv)
scFv: QSALTQPASVSGSPGQSITISCTGTSSDVGGYNYVSWYQQHPGKAPKLMIYDVSKRPSGVSNRFSGSKSGNTASLTISGLQAEDEADYYCSSYTSSSTVVFGGGTKLTVLGGGGSGGGGSGGGGSQVQLQESGAEVKKPGSSVKVSCKASGGTFSRYAISWVRQAPGQGLEWMGGIIPFFGTSDYAQKFQGRVTITADESTSTAYMDLSRLRSEDTAVYYCAVRVATTGTGFYYAMDVWGQGTTVTVSS
notes: also called BCMA32 scFv; BCMA32 CAR
On to B13, for which, in assay [1], the binding result was “binds”.

B14: anti-CD123 scFv-C34 (scFv)
scFv: QSALTQPPSASGSPGQSVTISCTGTRSDVGAYNYVSWYQHHPGKAPKLMLYDVSKRPSGVSDRFSGSKSGNTASLTVSGLQSEDEANYYCSSYAGSGKYVFGSGTELTVLGGGGSGGGGSGGGGSEVHLVESGGGLVKPGGSLRLSCAASGFTFSDTWMSWVRQAPGKGLEWVGRIKSKTDGGTTNYAAPVKGRFTISRDDSKTTLFLQMNSLKTEDTAVYYCTGGDYPLFAYWGQGALVTVSS
notes: also called C34 scFv
With B14, in assay [2], the binding result is listed as “binds”.

B15: anti-CD40 scFv 40-45 (in LACOSTIM 40-45.28) (scFv)
scFv: QSALTQPASVSGSPGQSITISCTGTSSDVGGYKYVSWYQQHPGKAPKLMIYDVSNRPSGVSNRFSGSKSGNTASLTISGLQAEDEADYYCSSYTSSSTPHVVFGGGTKVTVLGGGGSGGGGSGGGGSEVHLVESGGGVVQPGRSLRLSCAASGFPFSRYGMHWVRQAPGKGLEWVSYISSSGSTIYYADSVKGRFTISRDNSKNTVSLQMNSLRADDTAVYYCSRGTRPGITGRLGYWGQGTLVTVSS
notes: Tested on T cells as part of the LACOSTIM 40-45.28 (scFv fused with CD28), co-electroporated with the anti-Her2 CAR 4D5.BBZ; also called 40-45 scFv
On to B15, for which the binding result in assay [3] was “binds”.

B16: anti-CD123 scFv-C27 (scFv)
scFv: EIVLTQSPGTVSLSPGERATLSCRASQRVSATYLAWYQQKPGQAPRLLMYGGSRRATGIPDRFSGSGSGTDFTLTIRRLEPEDSAVYYCQQYGSSPLTFGGGTKLEIKGGGGSGGGGSGGGGSQVQLVQSGSELKKPGASVKVSCKASGYTFTSYGISWVRQAPGQGLEWMGWISAYNGNTNYAQKLQGRVTMTTDTSTSTAYMELRSLRSDDTAVYYCARDPYDDYGGNSRDEEDAFDIWGQGTTVTVSS
notes: also called C27 scFv
For B16, the binding result in assay [2] was “binds”.

B17: anti-BCMA scFv BCMA28 (scFv)
scFv: QSALTQPPSVSEAPRQRVTISCSGSSSNIGQNAVNWYQKLPGKAPKLLIYYNDLVSSGVSDRFSGSKSGTSASLAISGLQSEDEADYYCATWDDSLNGVVFGGGTKVTVLGGGGSGGGGSGGGGSQVQLVQSGPGLVKPSQTLSLTCAISGDSVSSNSAAWNWIRQSPSRGLEWLGRTYYRSKWYNDYAVSVKSRITINPDTSKNQFSLQLNSVTPEDTAVYYCARDYYYGMDVWGQGTTVTVSS
notes: also called BCMA28 scFv; BCMA28 CAR
As for B17, the binding result in assay [1] was “binds”.

B18: anti-BCMA scFv BCMA33 (scFv)
scFv: QSALTQPPSASGSPGQSVTISCTGTSSDVGGYNYVSWYQQHPGKAPKLMIYEVSKRPSGVPDRFSGSKSGNTASLTVSGLQAEDEADYFCSSYAGSNNFVVFGGGTKLTVLGGGGSGGGGSGGGGSEVQLVESGGGLVQPGRSLRLSCAASGFTFDDYAMHWVRQAPGKGLEWVSGISWNSGSIGYADSVKGRFTISRDNAKNSLYLQMNSLRAEDTALYYCAKVGASAALGAFDIWGQGTMVTVSS
notes: also called BCMA33 scFv; BCMA33 CAR
Take B18: the binding result in assay [1] is “binds”.
